The values below come from patent US20210355166A1, “[…] METHODS OF USE THEREOF” (priority 2018, published 2021).

Non-standard residues stand in square brackets, D forms with d. Residues, ends and D or L forms follow the SMILES beside them. No end group written: not given here. *: point of attachment. βGlc = OC[C@H]1O[C@@H](*)[C@H](O)[C@@H](O)[C@@H]1O; Dmt = Cc1cc(O)cc(C)c1C[C@H](N)C(=O)O

One test deals with C57BL/6 mice. Description: Nociception (analgesia) testing on 54 C hotplate. Format: in vivo, mouse. The note with it: 54° C. hotplate, s.c. The protocol: Experiments were performed under the guidelines of the Australian code of practice for the care and use of animals for scientific purposes (National Health and Medical Research Council, Australia, 7th Edition). Great care was taken to minimise animal suffering during these experiments and to reduce the number of animals used. […] Food and water was available ad libitum. Mice were given at least 7 days to habituate to housing facilities prior to handling, and handled by the experimenter for 4 days prior to testing. […] The experimenter was blind to all drugs tested. Animals were tested on a 54° C. hotplate, with a maximum cut-off time of 20 seconds to prevent tissue damage. Endpoints were hindpaw lick, hindpaw flutter or jump. […] The percentage of maximal possible effects (% MPE) were calculated as follows: % MPE=(test latency−baseline latency)/(cutoff latency−baseline latency)×100%. The cut-off latency was 20 seconds. Significant differences were assessed with a two-way ANOVA and Tukey's post hoc multiple comparisons test. […] Doses were transformed to the logarithm of μmol/kg. A two-way ANOVA was used to compare data at equimolar doses.

For the next test, the target named is T1, human MOPr (hMOPr) (Homo sapiens, UniProt P35372).
T1 construct: expressed in transfected cells; host or cells: HEK cells
T1 sequence (P35372 whole entry): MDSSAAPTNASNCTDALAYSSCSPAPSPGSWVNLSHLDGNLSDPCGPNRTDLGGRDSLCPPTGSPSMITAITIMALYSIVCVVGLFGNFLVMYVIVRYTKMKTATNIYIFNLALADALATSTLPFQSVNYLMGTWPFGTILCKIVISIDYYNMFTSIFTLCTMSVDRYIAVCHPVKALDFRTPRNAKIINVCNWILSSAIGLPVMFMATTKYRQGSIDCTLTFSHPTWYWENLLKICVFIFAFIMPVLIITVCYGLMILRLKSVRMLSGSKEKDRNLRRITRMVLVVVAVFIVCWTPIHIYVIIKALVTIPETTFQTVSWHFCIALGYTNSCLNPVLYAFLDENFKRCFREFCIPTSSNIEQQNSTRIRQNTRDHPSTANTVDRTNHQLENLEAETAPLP
Nature of the test: Inhibition of forskolin induced cAMP formation in HEK cells expressing hMOPr. Format: cell-based. The note with it: for TetraQ, initial screen % inhibition of forskolin-stimulate cAMP formation in hMOPr HEK cells: 10 um; for activity in cAMP screen: 10 μM. How it is done: Procedure for measuring the level of intracellular cAMP produced upon modulation of adenylate cyclase activity by G-protein-coupled receptors (GPCRs). To test the functional interaction between opioids, and opioid-like compounds, and specific opioid GPCRs by measuring changes in intracellular cAMP levels relative to basal levels. The assay can measure agonist and antagonist activity on GPCRs by stimulating cells to either increase or decrease intracellular cAMP levels.
The assay is performed in a 384-well plate and each data point is performed in triplicate. The test compounds should be analyzed on the same plate as controls and cAMP standards. The number of compounds to be screened for activity will determine the volume of reagents and cells required for each experiment. The test compounds, controls and cAMP standards can be added to the plate in advance or while the cells are incubating with stimulation buffer. The plate should be sealed with TopSeal adhesive sealing film to avoid evaporation.
Assay background: Detection of cAMP is based on the competition between intracellular cAMP and biotinylated cAMP linked streptavidin-coated donor beads for anti-cAMP conjugated acceptor beads. When the donor and acceptor beads are in close proximity a signal emitted at 520-620 nm is detected using the Envision multilabel plate reader.
Preparation of test peptides: Test peptides are typically tested at a final concentration of 10 μM. As most test peptides are dissolved in 100% DMSO it is recommended that the DMSO concentration is limited to 2% v/v during cell stimulation to ensure maximum cell viability and responsiveness. Prepare 1 mM and 100 μM stock solutions of test peptides in an appropriate diluent and store at 4° C. For a library of peptides this can be performed in 96 well plates sealed with silicon sealing mats. Test peptides are diluted fresh from stock solutions to a working concentration in stimulation buffer with forskolin. It should be noted that as peptides are diluted 1:1 with cells in the assay the working concentration should be twice the final required concentration. It may be necessary to perform assays on compounds freshly diluted from DMSO stocks compounds to avoid experimental variability.
Preparation of cells: For best results cells should be low passage at 70-90% confluence. To prepare cells for the assay remove growth medium, add Versene and then incubate at 37° C. for approximately 5 minutes to allow cells to detach from the tissue culture plastic. Collect cells and centrifuge for 2 minutes at 275×g. Decant the supernatant and resuspend the cell pellet in 1×PBS. Determine the cell concentration using a haemocytometer. Re-centrifuge cells for 2 minutes at 275×g and decant supernatant. Resuspend cells in stimulation buffer to a final concentration of 1-4×10^4 cells per ml. Note that the cells number will influence the cAMP levels prevailing before (basal) and after adenylate cyclase activation. A cell titration should be performed to optimize the difference between basal and stimulation levels of cAMP. Cells are incubated in stimulation buffer for 20 to 30 minutes at 37° C. prior to adding 5 μl to wells containing test and control compounds. Note that cells are not added to the cAMP standards.
1. Add standards (10 μl/well), control compounds (5 μl/well) and test peptides (5 μl/well) into 384-well plates and seal with Top Seal adhesive sealing film. Leave at room temperature until the cell incubation is complete. 2. Add 5 μl cells incubated in stimulation buffer to the wells containing test peptides and control compounds, but not to the standards. Incubate cells and compounds for 30 min at 37° C. 3. Add 10 μl lysis buffer per well. 4. Under subdued lighting add 5 μl acceptor bead solution to each well. Wrap plate in foil and incubate at room temperature with gentle mixing on an orbital shaker for 60 min. 5. […]
Background: Cyclic AMP is a second messenger, typically raised through Gs and lowered through Gi signalling.

Test [1] concerns the target T2, human µ-opioid receptor (hMOPr), human recombinant MOPr expressed in HEK-293 cells (human, UniProt P35372 1-400). Description: cell-based or functional assay.
For test [2], the target named is T2, human µ-opioid receptor (hMOPr), human …. Description: competition with [3H]DAMGO (0.5 nM), membranes with human recombinant MOPr (HEK-293), filtration and scintillation counting. How it is done: The specific ligand binding to the receptors is defined as the difference between the total binding and the nonspecific binding determined in the presence of an excess of an unlabelled opioid ligand (naloxone, 10 μM). The results are expressed as a percent of control specific binding ((measured specific binding/control specific binding)×100) obtained in the presence of unlabelled peptides of interest. The IC₅₀ values (concentration causing a half-maximal inhibition of control specific binding) and Hill coefficients (nH) were determined by non-linear regression analysis of the competition curves generated with mean replicate values using Hill equation curve fitting (Y=D+[(A−D)/(1+(C/C₅₀nH)], where Y=specific binding, D=minimum specific binding, A=maximum specific binding, C=compound concentration, C₅₀=IC₅₀, and nH=slope factor).

T2 sequence (P35372 whole entry): as above

Turning to “2,6-dimethyl-L-tyrosine-D-Val-L-Val-D-Phe-L-Ser(β-D-Glc)-NH2 ([Dmt][dV]V[dF]S(βGlc)-NH2; N-terminus assumed; SMILES Cc1cc(O)cc(C)c1C[C@H](N)C(=O)N[C@@H](C(=O)N[C@H](C(=O)N[C@H](Cc1ccccc1)C(=O)N[C@@H](CO[C@@H]1O[C@H](CO)[C@@H](O)[C@H](O)[C@H]1O)C(N)=O)C(C)C)C(C)C) [peptide 3h]”, the “analgesic activity after systemic administration” value in the test on C57BL/6 mice is “systemically inactive”.

For `C[C@@H](NC(=O)[C@@H](N)Cc1ccc(O)cc1)C(=O)NCC(=O)N(C)[C@@H](Cc1ccccc1)C(=O)NCCO` [DAMGO, [D-Ala^2, N-MePhe^4, Gly^5-ol]-enkephalin, reference compound], the “TetraQ, initial screen % inhibition of forskolin-stimulate cAMP formation in hMOPr HEK cells” value (“TetraQ, initial screen % inhibition” below) on human MOPr (hMOPr) is listed as “DAMGO = 94%)”.

On to `CC(C)[C@H](NC(=O)[C@H](NC(=O)[C@@H](N)Cc1ccccc1)C(C)C)C(=O)N[C@H](Cc1ccccc1)C(=O)O` [peptide 1a, L-Phe-D-Val-L-Val-D-Phe] (H-F[dV]V[dF]-OH), for which, at human MOPr (hMOPr), the “activity in cAMP screen” value is listed as “showed activity” and the “TetraQ, initial screen % inhibition” value was 21%.

As for `CC(C)[C@@H](NC(=O)[C@@H](N)Cc1ccccc1)C(=O)NCC(=O)N[C@H](Cc1ccc(O)cc1)C(N)=O` [peptide 2d, L-Phe-D-Val-Gly-D-Tyr-NH2] (H-F[dV]G[dY]-NH2), at human MOPr (hMOPr), the “TetraQ, initial screen % inhibition” value amounted to 31%.

With `CC(C)[C@H](NC(=O)[C@H](NC(=O)[C@@H](N)Cc1ccc(O)cc1)C(C)C)C(=O)N[C@H](Cc1ccccc1)C(=O)O` [peptide 3a, L-Tyr-D-Val-L-Val-D-Phe], the “activity in cAMP screen” value at human MOPr (hMOPr) was “showed activity”.

Turning to “H-FGGy-NH2 (H-FGG[dY]-NH2; SMILES NC(=O)[C@@H](Cc1ccc(O)cc1)NC(=O)CNC(=O)CNC(=O)[C@@H](N)Cc1ccccc1) [2f]”, in the test with human MOPr (hMOPr), the “TetraQ, initial screen % inhibition” value is listed as 0%.

In the case of “H-FGVy-NH2 (H-FGV[dY]-NH2; SMILES CC(C)[C@H](NC(=O)CNC(=O)[C@@H](N)Cc1ccccc1)C(=O)N[C@H](Cc1ccc(O)cc1)C(N)=O) [2e]”, the “TetraQ, initial screen % inhibition” value in the test with human MOPr (hMOPr) is 0%.

With H-FVVY-NH2 [2c], the “TetraQ, initial screen % inhibition” value on human MOPr (hMOPr) is 0%.

On to H-FVvf-NH2 [1g], for which the “TetraQ, initial screen % inhibition” value on human MOPr (hMOPr) is on record as 0%.

Take H-FVvf-OH [1c]: on human MOPr (hMOPr), the “activity in cAMP screen” value was “inactive” and the “TetraQ, initial screen % inhibition” value is 0%.

In the case of H-FvVy-NH2 [2b], on human MOPr (hMOPr), the “activity in cAMP screen” value was “Neither Bilaid B (2a) nor its C-terminal carboxamide analogue (2b) showed activity” and the “TetraQ, initial screen % inhibition” value is listed as 0%.

As for “H-FvVy-OH (H-F[dV]V[dY]-OH; SMILES CC(C)[C@H](NC(=O)[C@H](NC(=O)[C@@H](N)Cc1ccccc1)C(C)C)C(=O)N[C@H](Cc1ccc(O)cc1)C(=O)O) [2a]”, in the test with human MOPr (hMOPr), the “activity in cAMP screen” value is reported as “Neither Bilaid B (2a) nor its C-terminal carboxamide analogue (2b) showed activity” and the “TetraQ, initial screen % inhibition” value is given as 0%.

Regarding H-fVvF-NH2 [1f], on human MOPr (hMOPr), the “TetraQ, initial screen % inhibition” value is recorded as 0%.

As for H-fVvF-OH [1b], at human MOPr (hMOPr), the “activity in cAMP screen” value was “inactive” and the “TetraQ, initial screen % inhibition” value is listed as 0%.

Consider H-fvVF-OH [1d], for which the “TetraQ, initial screen % inhibition” value at human MOPr (hMOPr) was found to be 0%.

In the case of H-[dF][dV]VF-OH [H-fvVF-OH], the “% inhibition of forskolin-stimulate cAMP formation in hMOPr HEK cells (10 um)” value (“% inhibition … (10 um)” for short) in test [1] is 0%.

Turning to H-FGG[dY]-NH2 (SMILES NC(=O)[C@@H](Cc1ccc(O)cc1)NC(=O)CNC(=O)CNC(=O)[C@@H](N)Cc1ccccc1) [H-FGGy-NH2], in test [1], the “% inhibition … (10 um)” value is 0%.

For FVVF (D-Phe at 1; D-Val at 3; C-terminal amide) [H-fVvF-NH2], the “% inhibition … (10 um)” value in test [1] turned out to be 0%.

B1: H-FGVy-NH2 (peptide)
peptide: H-FGV[dY]-NH2
SMILES: CC(C)[C@H](NC(=O)CNC(=O)[C@@H](N)Cc1ccccc1)C(=O)N[C@H](Cc1ccc(O)cc1)C(N)=O
Regarding B1, in test [1], the “% inhibition … (10 um)” value was determined as 0%.

Regarding H-[dF]V[dV]F-OH [H-fVvF-OH], the “% inhibition … (10 um)” value in test [1] amounted to 0%.

B2: bilaid B (H-FvVy-OH) (peptide)
peptide: H-F[dV]V[dY]-OH
SMILES: CC(C)[C@H](NC(=O)[C@H](NC(=O)[C@@H](N)Cc1ccccc1)C(C)C)C(=O)N[C@H](Cc1ccc(O)cc1)C(=O)O
B2: in test [1], the “% inhibition … (10 um)” value came out at 0%.

Turning to H-FVVY-NH2 [H-FVVY-NH2], the “% inhibition … (10 um)” value in test [1] worked out at 0%.

As for H-FV[dV][dF]-OH [H-FVvf-OH], in test [1], the “% inhibition … (10 um)” value is 0%.

In the case of FVVF (D-Val at 3; D-Phe at 4; C-terminal amide) [H-FVvf-NH2], the “% inhibition … (10 um)” value in test [1] was found to be 0%.

B3: H-FvVy-NH2 (peptide)
peptide: H-F[dV]V[dY]-NH2
SMILES: CC(C)[C@H](NC(=O)[C@H](NC(=O)[C@@H](N)Cc1ccccc1)C(C)C)C(=O)N[C@H](Cc1ccc(O)cc1)C(N)=O
On to B3, for which the “% inhibition … (10 um)” value in test [1] was 0%.

B4: bilaid A (H-FvVf-OH; L-Phe-D-Val-L-Val-D-Phe) (peptide)
peptide: H-F[dV]V[dF]-OH
SMILES: CC(C)[C@H](NC(=O)[C@H](NC(=O)[C@@H](N)Cc1ccccc1)C(C)C)C(=O)N[C@H](Cc1ccccc1)C(=O)O
notes: Natural product of Penicillium sp; MST-MF667; made by Fmoc synthesis for the assays; also called 1a; peptide 1a
The Ki is a measure of affinity in units of concentration, obtained from inhibition or displacement. Regarding B4, the “% inhibition … (10 um)” value in test [1] turned out to be 21%. Besides, the Ki in test [2] came out at 3100 nM.

B5: bilaid C (H-YvVf-OH; L-Tyr-D-Val-L-Val-D-Phe) (peptide)
peptide: YVVF
modifications: D-Val at 2; D-Phe at 4; free C-terminal acid
notes: Natural product of Penicillium sp; MST-MF667; made by Fmoc synthesis; also called 3a; peptide 3a
Take B5: in test [1], the “% inhibition … (10 um)” value was determined as 77%. Further, the Ki in test [2] was 210 nM.
